Data taken from the supplement of paper PMC10567573.
± gives the standard deviation.

Assay: protein stability index of a GFP-peptide fusion (GPS, HEK-293T) (PSI 1-6); higher = more stable
[1] = treatment: DMSO, c terminus: a fixed tail appended
[2] = treatment: MLN4924 1 uM, 8 h, c terminus: a fixed tail appended
[3] = treatment: DMSO, c terminus: native
[4] = treatment: MLN4924 1 uM, 8 h, c terminus: native
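Also: 24-mer peptide tiles fused after GFP, lentivirally expressed, FACS-sorted into six equal bins by GFP/DsRed ratio, decoded by Illumina sequencing, PSI is the read-weighted mean bin number.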

Sequence | protein stability index [1] | protein stability index [2] | protein stability index [3] | protein stability index [4]
PDARPHRRPHELLPVGGRLPGPTR [HAGHL] | 4.6 ± 0.14 | 4.57 ± 0.3 | – | –
PDVTQLTPPSHDLTDNIFPRLVC [ANKRD17] | – | – | 2.45 ± 0.28 | 2.4 ± 0.25
PEEKIWEELSVLEVFEGREDSILG [MAGEA3] | 4.6 ± 0.44 | 4.67 ± 0.11 | – | –
PEHRAFGSPFGLEEPQWVPDKECR [ZFYVE21] | 4.57 ± 0.15 | 4.62 ± 0.28 | – | –
PELRQLVLSLLSLEPAQRPPLSHI [NEK8] | 2.56 ± 0.41 | 2.47 ± 0.46 | – | –
PEQGVPKSGEGFIDFIGQVHKTKE [PTPRD] | 4.6 ± 0.44 | 5.17 ± 0.5 | – | –
PFFFTGAFPFNMQELVLKVRIQNP [ANKRD40] | 2.27 ± 0.042 | 1.99 ± 0.61 | – | –
PFGENAEFPADISSITEAVPSESE [NFE2L1] | 5.5 ± 0.28 | 5.25 ± 0.27 | – | –
PFSSVTEEELNFEKGETMEVIEKP [NCK2] | 5.38 ± 0.22 | 5.42 ± 0.28 | – | –
PGAGSRRRGRMALCGQAAGAASLP [FBXO33] | 2.76 ± 0.2 | 2.97 ± 0.17 | – | –
PGCGSVPGSGSGPGPGSGPGSGPG [SPAG8] | 4.96 ± 0.062 | 4.99 ± 0.25 | – | –
PGGAPRVASRNLFPKDTLMNLHVY [CLPTM1] | 2.33 ± 0.24 | 2.29 ± 0.058 | – | –
PGMPPPVPRPGIPPMTQAQAVSAP [ZNF207] | 4.94 ± 0.15 | 4.86 ± 0.19 | – | –
PGSILYSSSGDLADLENEDIFPEL [DLC1] | 4.69 ± 0.14 | 4.77 ± 0.32 | – | –
PLDSKENLENPMRRIHSLPQKLLG [CDC25A] | 3.29 ± 0.32 | 3.79 ± 0.16 | – | –
PLTRLGQLKACTNFDDILNVCDDY [KCNG1] | 3.18 ± 0.29 | 3.34 ± 0.23 | – | –
PMMEHEMGGHHPGADYPVDGLPDL [CTNNB1] | 5.2 ± 0.23 | 5.24 ± 0.13 | – | –
PPAQGRVSRRLSPRKVSTCTDHEL [TRIM9] | 5.031 ± 0.046 | 4.87 ± 0.35 | – | –
PPIPILELADHIERLKANDNLKFS [PTPRD] | 3.56 ± 0.19 | 3.32 ± 0.2 | – | –
PPPNRMYPPPPPALPSSAPSGPPP [WASL] | 5.01 ± 0.3 | 5.08 ± 0.13 | – | –
PQALATRALPCPAHVVFRYQGVRM [FCHSD1] | 2.69 ± 0.2 | 2.69 ± 0.22 | – | –
PQEFQKTVSTMYYLWMCSTLALLL [SCAMP3] | 2.88 ± 0.47 | 2.77 ± 0.67 | – | –

Sequence | protein stability index [1] | protein stability index [2] | protein stability index [3] | protein stability index [4]
PSPTSPPPPELMDVSLVGGPADCS [DYRK1B] | 5.09 ± 0.1 | 5.14 ± 0.22 | – | –
PSRGHAYRDYGHSRRDESYSRGYR [RBMY1A1] | 4.42 ± 0.13 | 4.34 ± 0.26 | – | –
PSTASLLLCPGGLDHKLNLRGKAW [TIAF1] | 2.69 ± 0.24 | 2.87 ± 0.24 | – | –
PTARHFQEHPRQQLATSSFLLFLL [MOSPD3] | 2.2 ± 0.24 | 2.23 ± 0.4 | – | –
PTFKSFEERVETTVTSLKTKVGGT [TPD52L1] | 4.64 ± 0.25 | 4.65 ± 0.033 | – | –
PVEYRSDVNSFVTECEPSELFQLQ [CDS1] | 4.5 ± 0.36 | 4.55 ± 0.18 | – | –
PYPASKADIPSVAFSSRLGGSRGA [DCAF4] | 3.71 ± 0.22 | 3.8 ± 0.41 | – | –
QADTVHSNPELDVLLLGSVDGRHL [DNAAF3] | 3.77 ± 0.4 | 4 ± 0.3 | – | –
QAGPSPAPPTPPEEEDLRRRLKYF [MCOLN1] | 4.91 ± 0.14 | 4.99 ± 0.17 | – | –
QAIVTEDKTDISSGRARQQDEEML [MLH1] | 5.23 ± 0.22 | 5.38 ± 0.14 | – | –
QAKPEKAAVAQKPRSHFTTPAPMS [MYBL2] | 4.44 ± 0.34 | 4.39 ± 0.11 | – | –
QAYKWSNKLQYHAGLASGLLNQQS [MED27] | 2.46 ± 0.28 | 2.42 ± 0.096 | – | –
QCKDALEIYKRFLTRMTRVSEFLK [SNAP91] | 2.77 ± 0.9 | 2.51 ± 0.24 | – | –
QCRDLVDEAKKFHLRPELRSQMQG [KLHL12] | 3.38 ± 0.18 | 3.53 ± 0.13 | – | –
QEIEDKMKGFSFKEDTLLLIAEVM [C8orf76] | 2.54 ± 0.68 | 2.16 ± 0.44 | – | –
QEILLAHRRFCELLPQEQRSVESS [CIB1] | 4.16 ± 0.15 | 4.32 ± 0.11 | – | –
QERQGPAKPEVLSIQWPGKRSSRR [NECAB1] | 4.88 ± 0.21 | 4.93 ± 0.13 | – | –
QETAEFFLSLDIPIGELYGLSESS [ACSBG2] | 2.61 ± 0.37 | 2.47 ± 0.41 | – | –
QGEEVAQRSTVFKTTIPEEEEEEE [LMNB1] | 5.63 ± 0.19 | 5.64 ± 0.25 | – | –
QGIYEEYEDIRRENPVGTFHCSMS [PTPN9] | 3.84 ± 0.28 | 3.98 ± 0.26 | – | –
QGTARTLSPVLESPRDLQFSEIRE [TNXB] | 4.64 ± 0.16 | 4.78 ± 0.18 | – | –
QGTELWVAERGTTQGCHPAWEPRS [ZNF8] | 3.24 ± 0.16 | 3.1 ± 0.27 | – | –

Sequence | protein stability index [1] | protein stability index [2] | protein stability index [3] | protein stability index [4]
QHKCDECGKSFTQSSGLIRHQRIH [ZSCAN9] | 5.26 ± 0.19 | 5.28 ± 0.12 | – | –
QIEGLNEELAYLKKNHEEEMKEFS [KRT15] | 5.25 ± 0.33 | 5.3 ± 0.19 | – | –
QIKRKARNEGRNRRRQQVLPLKS [CDKL4] | – | – | 2.87 ± 0.24 | 3.44 ± 0.35
QKNFELAFTMAENLANCERLIEVE [SMTNL2] | 2.45 ± 0.2 | 2.88 ± 0.67 | – | –
QLDGLGFLYVTGHIKEILITAGGE [ACSBG2] | 2.66 ± 0.54 | 2.44 ± 0.64 | – | –
QLELRAGAERLDALLADEERCLSC [TRADD] | 3.98 ± 0.25 | 4.24 ± 0.18 | – | –
QLIYNHITTRVNSEQEHFLIVPFG [ADD1] | 2.41 ± 0.27 | 2.26 ± 0.08 | – | –
QLLEQKQAYWAQAEDTAAPAEESK [CBY2] | 5.01 ± 0.25 | 4.96 ± 0.23 | – | –
QMPTEIEFPESRKPISTKSQFLKH [ZNF649] | 4.16 ± 0.19 | 4.26 ± 0.19 | – | –
QMQDDEQKTRLLEDSVSRLEKEIE [PALM] | 5.11 ± 0.15 | 4.97 ± 0.1 | – | –
QNAALRGELSQARGQEPARADQLC [PRPH] | 5.12 ± 0.23 | 5.02 ± 0.37 | – | –
QNLLGFTPEELHAILGVQPDTED [ETS2] | – | – | 4.78 ± 0.39 | 4.85 ± 0.34
QPIHLWQFLKELLLKPHSYGRFIR [SPDEF] | 2.69 ± 0.13 | 2.65 ± 0.19 | – | –
QPNTYADFEFLAFWQTQYNNMNAV [PKD2L1] | 2.21 ± 0.4 | 2.03 ± 0.24 | – | –
QPPRFPVPHNGSSEATLPAQMSTL [PDLIM4] | 4.67 ± 0.19 | 4.83 ± 0.089 | – | –
QPPSCQGEAAGSSLIGHLQTLSPD [DUSP5] | 4.76 ± 0.14 | 4.69 ± 0.13 | – | –
QPSGMKEGVKRYEQEHAAIQDKLF [CHCHD6] | 4.55 ± 0.12 | 4.14 ± 0.21 | – | –
QQGEYSEAIPILRAALKLEPSNKT [FKBP8] | 4.12 ± 0.19 | 4.14 ± 0.11 | – | –
QQLEEELLRAKIEVEKLKAIRLRH [RAD54B] | 5.32 ± 0.25 | 5.43 ± 0.27 | – | –
QQLHQLPRGRLDLATQSLTVETCR [LRRC45] | 4.04 ± 0.23 | 3.9 ± 0.32 | – | –
QQLKEFDGKSLVSVTKEGLELPED [HSP90AB1] | 5.29 ± 0.42 | 5.3 ± 0.44 | – | –
